From paper PMC4844702, “Selective inhibition of the kinase DYRK1A by targeting its folding process” (Nature Communications, 2016)

Biological target: CDC37 (UniProt Q16543)
Experiment: anti-FLAG plate capture, CDC37-nanoKAZ luminescence
Conditions: reference: wild type

Substance	fold change (sites S97)	also measured
DYRK1A (from UniProt Q13627) K188R kinase-dead	54	
DYRK1A (from UniProt Q13627) S97A	2.2	
DYRK1A (from UniProt Q13627) Y319F/Y321F		fold change (sites Y319,Y321): 6.2
DYRK1A (from UniProt Q13627) Y321F		fold change (sites Y321): 5.2
